Test results as given in publication PMC2807034, “An Autoinhibitory Tyrosine Motif in the Cell-Cycle-Regulated Nek7 Kinase Is Released through Binding of Nek9” (Molecular Cell, 2009).

Columns and labels:
Test in all cases: pull-down; GST-fusion protein (20 pmol) immobilised on glutathione Sepharose 4B beads; incubated with 1 ml of 3.5 uM Nek7 protein for 2 hr; PD buffer (20 mM HEPES pH 7.5, 150 mM NaCl, 0.05% Tween 20); three 30 min washes at 4°C; anti-His6 immunoblot
Conditions in all cases: both partners purified
[1] = target: T1, Nek7, wild-type, full-length human protein with C-terminal His6 tag (human, UniProt Q8TDX7 1-302)
T1 construct: Nek7 (NIMA-related kinase 7), human, full-length (35 kDa), cloned into pET30; The His6 tag is uncleavable; also called Nek7-WT; WT; source: E. coli Codonplus RPIL, coexpressed with lambda phosphatase, purified (HisTRAP, then dialysis or gel filtration); not shown: His6, C-terminal, kept

[2] = target: T2, Nek7-Δ20, N-terminal truncation of Nek7 starting at residue 20 (human, UniProt Q8TDX7 20-302)
T2 construct: Nek7, human, truncation starting at residue 20; source: bacterially expressed and purified

[3] = target: T3, Nek7-Δ30, N-terminal truncation of Nek7 starting at residue 30 (human, UniProt Q8TDX7 30-302)
T3 construct: Nek7, human, truncation starting at residue 30; source: bacterially expressed and purified

Nek7-N33D = target: T4, Nek7-N33D (human, UniProt Q8TDX7 1-302, N33D)
T4 construct: Nek7, human, point mutant of the full-length His6 construct (QuikChange); also called ND; source: bacterially expressed and purified; not shown: His6, C-terminal, kept

Nek7-Y28A/L31A = target: T5, Nek7-Y28A/L31A (human, UniProt Q8TDX7 1-302, Y28A | L31A)
T5 construct: Nek7, human, double point mutant of the full-length His6 construct (QuikChange); also called YA/LA; source: bacterially expressed and purified; not shown: His6, C-terminal, kept
T5 sequence (Q8TDX7 whole entry Y28A/L31A): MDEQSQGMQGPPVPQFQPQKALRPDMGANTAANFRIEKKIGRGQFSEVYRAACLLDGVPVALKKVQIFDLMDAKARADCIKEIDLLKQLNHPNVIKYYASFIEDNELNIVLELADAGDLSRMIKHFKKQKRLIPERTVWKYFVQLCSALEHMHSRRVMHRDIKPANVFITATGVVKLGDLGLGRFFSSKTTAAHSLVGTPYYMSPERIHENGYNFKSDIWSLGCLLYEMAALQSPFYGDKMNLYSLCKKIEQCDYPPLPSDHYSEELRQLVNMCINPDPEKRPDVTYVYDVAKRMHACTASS

T1 sequence (Q8TDX7 whole entry): as the sequence (Q8TDX7 whole entry Y28A/L31A) above, with A28Y, A31L counted along it
T2 sequence (Q8TDX7 20-302, stated change not applied): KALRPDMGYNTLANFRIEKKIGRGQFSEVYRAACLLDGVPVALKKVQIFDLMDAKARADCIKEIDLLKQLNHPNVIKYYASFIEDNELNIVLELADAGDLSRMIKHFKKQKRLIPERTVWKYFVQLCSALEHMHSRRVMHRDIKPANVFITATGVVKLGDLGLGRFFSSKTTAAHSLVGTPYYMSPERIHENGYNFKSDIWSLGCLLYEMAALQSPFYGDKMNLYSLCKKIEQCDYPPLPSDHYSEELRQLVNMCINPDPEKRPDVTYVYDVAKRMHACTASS
T4 sequence (Q8TDX7 whole entry N33D): as the sequence (Q8TDX7 whole entry Y28A/L31A) above, with A28Y, A31L, N33D counted along it
T3 sequence (Q8TDX7 30-302, stated change not applied): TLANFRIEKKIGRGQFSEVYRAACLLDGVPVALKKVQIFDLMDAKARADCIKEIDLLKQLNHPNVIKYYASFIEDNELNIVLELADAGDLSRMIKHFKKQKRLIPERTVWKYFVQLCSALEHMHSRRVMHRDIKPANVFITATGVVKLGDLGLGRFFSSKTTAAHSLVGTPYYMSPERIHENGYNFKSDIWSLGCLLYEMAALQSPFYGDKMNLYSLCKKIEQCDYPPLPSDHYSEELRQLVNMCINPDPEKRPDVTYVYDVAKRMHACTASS

binding result [1]: binds
binding result [2]: binds
binding result [3]: binds
binding result (Nek7-N33D): binds
binding result (Nek7-Y28A/L31A): binds
B1: GST-tagged C-terminal domain of human Nek9 (amino acids 706-960) (domain or fragment, UniProt Q8TD19 706-960, looked up)
chain: SLHHVPDLSCRGWHTILIVEKVLNSKTIRSNSSGLSIGTVFQSSSPGGGGGGGGGEEEDSQQESETPDPSGGFRGTMEADRGMEGLISPTEAMGNSNGASSSCPGWLRKELENAEFIPMPDSPSPLSAAFSESEKDTLPYEELQGLKVASEAPLEHKPQVEASSPRLNPAVTCAGKGTPLTPPACACSSLQVEVERLQGLVLKCLAEQQKLQQENLQIFTQLQKLNKKLEGGQQVGMHSKGTQTAKEEMEMDPKP
notes: Nek9, human, noncatalytic C-terminal domain (CTD), amino acids 706-960, cloned into pGEX-4T1; pGEX-4T1 normally places GST at the N-terminus; also called Nek9-CTD; GST-Nek9-CTD; source: E. coli Rosetta DE3, purified (glutathione Sepharose)
